1 molecule from PMC4678419 can be followed below.

For assay [1], the target named is biotin-labeled surface proteins from human monocytes. Put plainly: SPR; Biacore 3000; biotin-labeled surface proteins from THP-1 cells (3.2 kRU) or human monocytes (2.3 kRU) captured on a SA chip; 25 nM S100A8, S100A9 or S100A8/S100A9 injected 3 min at 20 uL/min in HBS-P with 1 mM Ca and 20 uM Zn; fit to a 1:1 model. For orientation: Surface plasmon resonance follows binding to a sensor surface in real time, without labels.

The target of assay [2] is biotin-labeled surface proteins from THP-1 cells. The assay is described as above.

B1: S100A9 (recombinant human S100A9, produced at Active Biotech AB) (natural protein)
chain: MTCKMSQLERNIETIINTFHQYSVKLGHPDTLNQGEFKELVRKDLQNFLKKENKNEKVIEHIMEDLDTNADKQLSFEEFIMLMARLTWASHEKMHEGDEGPGHHHKPGLGEGTP
Usually Kd stands for the concentration at which binding is half-saturated. Read a low Kd as tighter binding. With B1, the Kd was 2.3 nM in assay [1] and 3.3 nM in assay [2].
